Laboratory results from US20060035214, “Screening methods for identifying inhibitors of herpesviral replication” (IRM LLC, a Delaware Limited Liability Company, published 2006).

T1: SATB1 (UniProt Q01826 Q01826:1-763)
T1 sequence: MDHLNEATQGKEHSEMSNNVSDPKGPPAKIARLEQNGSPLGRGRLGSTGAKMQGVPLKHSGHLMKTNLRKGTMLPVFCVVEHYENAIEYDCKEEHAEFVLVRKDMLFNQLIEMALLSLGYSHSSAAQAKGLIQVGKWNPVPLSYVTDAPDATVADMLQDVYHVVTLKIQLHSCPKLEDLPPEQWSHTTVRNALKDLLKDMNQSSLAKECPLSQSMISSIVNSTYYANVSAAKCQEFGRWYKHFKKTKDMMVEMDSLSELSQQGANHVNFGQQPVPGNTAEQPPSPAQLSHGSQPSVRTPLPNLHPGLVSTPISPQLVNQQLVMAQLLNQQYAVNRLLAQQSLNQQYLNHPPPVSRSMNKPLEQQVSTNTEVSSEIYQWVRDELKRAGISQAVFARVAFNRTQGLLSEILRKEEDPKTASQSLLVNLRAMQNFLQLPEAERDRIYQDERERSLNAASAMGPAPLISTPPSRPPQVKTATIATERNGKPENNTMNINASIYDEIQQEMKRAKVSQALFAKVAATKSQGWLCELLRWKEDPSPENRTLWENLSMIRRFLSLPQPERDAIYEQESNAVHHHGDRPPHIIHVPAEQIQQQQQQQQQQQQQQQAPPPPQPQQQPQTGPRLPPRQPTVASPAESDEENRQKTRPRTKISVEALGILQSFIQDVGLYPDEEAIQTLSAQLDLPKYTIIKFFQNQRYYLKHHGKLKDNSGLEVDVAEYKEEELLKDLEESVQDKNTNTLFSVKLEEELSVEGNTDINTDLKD

B1: CMV-593 to -549 (dsDNA)
DNA 1: GGCATTGATTATTGACTAGTTATTAATAGTAATCAATTACGGGGTCATTAGTTCA
DNA 2: TGAACTAATGACCCCGTAATTGATTACTATTAATAACTAGTCAATAATCAATGCC
B2: CMV-687 to -640 (dsDNA)
DNA 1: TAAATCAATATTGGCTATTGGCCATTGCATACGTTGTATCTATATCATAATATGTACA
DNA 2: TGTACATATTATGATATAGATACAACGTATGCAATGGCCAATAGCCAATATTGATTTA
B3: CMV-639 to -594 (dsDNA)
DNA 1: TATATGTACATTTATATTGGCTCATGTCCAATATGACCGCCATGTTGGCATTGATT
DNA 2: AATCAATGCCAACATGGCGGTCATATTGGACATGAGCCAATATAAATGTACATATA

Key:
CDP (CUX1) = CDP (CUX1) (UniProt P39880 P39880:1-1505); test: EMSA; details: tags: pCITE-CDP, TNT reticulocyte lysate; label: radiolabel
CDP (CUX1), sequence (P39880 whole entry, one chain of several): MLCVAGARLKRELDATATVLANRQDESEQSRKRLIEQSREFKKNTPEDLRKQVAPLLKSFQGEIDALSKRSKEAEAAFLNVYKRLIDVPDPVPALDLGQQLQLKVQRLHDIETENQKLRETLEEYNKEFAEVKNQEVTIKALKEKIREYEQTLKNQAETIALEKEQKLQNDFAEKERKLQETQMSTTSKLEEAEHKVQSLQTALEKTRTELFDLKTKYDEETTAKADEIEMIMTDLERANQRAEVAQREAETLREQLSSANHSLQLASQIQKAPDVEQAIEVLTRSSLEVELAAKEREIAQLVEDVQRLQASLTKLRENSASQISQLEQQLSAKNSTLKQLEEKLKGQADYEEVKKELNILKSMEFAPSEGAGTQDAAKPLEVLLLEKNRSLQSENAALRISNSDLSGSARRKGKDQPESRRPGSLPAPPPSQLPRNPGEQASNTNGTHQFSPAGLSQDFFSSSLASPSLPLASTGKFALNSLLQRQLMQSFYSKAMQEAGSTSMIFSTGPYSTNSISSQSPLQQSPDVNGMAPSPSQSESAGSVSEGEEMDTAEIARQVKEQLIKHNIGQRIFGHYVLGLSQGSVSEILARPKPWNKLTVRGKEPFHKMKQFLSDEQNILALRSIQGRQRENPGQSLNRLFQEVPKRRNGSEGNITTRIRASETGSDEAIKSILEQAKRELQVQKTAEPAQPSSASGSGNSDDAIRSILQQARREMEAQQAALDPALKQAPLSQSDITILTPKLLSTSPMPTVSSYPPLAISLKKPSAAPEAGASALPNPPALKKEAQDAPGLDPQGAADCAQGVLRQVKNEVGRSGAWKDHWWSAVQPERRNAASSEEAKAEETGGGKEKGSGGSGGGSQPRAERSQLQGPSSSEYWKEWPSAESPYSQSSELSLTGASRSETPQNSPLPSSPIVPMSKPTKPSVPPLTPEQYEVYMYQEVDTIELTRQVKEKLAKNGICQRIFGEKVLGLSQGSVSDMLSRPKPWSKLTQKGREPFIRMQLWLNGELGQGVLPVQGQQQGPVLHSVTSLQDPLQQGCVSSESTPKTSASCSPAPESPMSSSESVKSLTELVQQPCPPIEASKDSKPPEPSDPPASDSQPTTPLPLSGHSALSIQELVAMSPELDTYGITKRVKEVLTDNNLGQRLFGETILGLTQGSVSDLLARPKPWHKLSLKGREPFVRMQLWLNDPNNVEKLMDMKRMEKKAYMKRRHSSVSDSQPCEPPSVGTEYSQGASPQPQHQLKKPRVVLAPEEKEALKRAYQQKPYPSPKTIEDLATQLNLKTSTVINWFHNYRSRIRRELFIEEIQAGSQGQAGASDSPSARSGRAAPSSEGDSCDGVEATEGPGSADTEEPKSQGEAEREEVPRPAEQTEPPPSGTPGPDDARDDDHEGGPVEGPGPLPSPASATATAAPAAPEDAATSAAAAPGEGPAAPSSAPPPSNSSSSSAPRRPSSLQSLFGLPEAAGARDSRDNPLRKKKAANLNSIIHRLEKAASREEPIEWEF

PDX1 [1] = target: T2, PDX1 (UniProt P52945 P52945:1-283); test: EMSA; positive control; details: tags: pCITE-PDX1, TNT reticulocyte lysate; label: radiolabel
T2 sequence (P52945 whole entry, one chain of several): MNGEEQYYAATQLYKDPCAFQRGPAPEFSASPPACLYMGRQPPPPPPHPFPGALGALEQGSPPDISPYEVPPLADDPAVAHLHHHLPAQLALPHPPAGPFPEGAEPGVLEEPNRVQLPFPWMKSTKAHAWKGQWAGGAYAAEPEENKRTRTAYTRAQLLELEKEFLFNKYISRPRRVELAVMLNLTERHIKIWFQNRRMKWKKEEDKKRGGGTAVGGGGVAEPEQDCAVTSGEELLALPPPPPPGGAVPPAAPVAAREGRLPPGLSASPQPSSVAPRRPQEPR

SATB1 = target: T1, SATB1; test: EMSA; details: tags: pCITE-SATB1, TNT reticulocyte lysate; label: radiolabel
PDX1 [2] = target: T2, PDX1; test: EMSA; details: tags: pCITE-PDX1, TNT reticulocyte lysate; label: radiolabel

Row | Binder | binding result (CDP (CUX1)) | binding result (PDX1 [1]) | binding result (SATB1) | binding result (PDX1 [2])
1 | B1 | binds | binds |  | 
2 | B2 | binds |  |  | 
3 | B3 | no binding |  | no binding | no binding
